In the supplement of paper PMC9732359:
± gives the uncertainty stated by the source.

Assay: protein stability index of a GFP-peptide fusion (yeast GPS) (PSI 1-4); higher = more stable; sorted into four equal gates, so the index is relative within each strain
How it was run: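 The protein stability index combines read frequencies across sorting gates, each weighted by its gate number and then summed. To obtain those frequencies, a pooled yeast library of GFP fusions to tiled 17-residue yeast protein peptides, on a plasmid also expressing Cherry, was grown to mid-log phase in leucine-free medium. The cells were sorted into four equal gates by GFP/Cherry ratio before plasmid amplification by PCR and Illumina sequencing.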

Sequence | protein stability index (doa10∆) | protein stability index (pdr5∆) | protein stability index (san1∆) | protein stability index (ubr1∆)
NLGEYYAQIGDKDNAEK [RPN7] | 1.92 ± 0.056 | 2.05 ± 0.075 | 2.49 ± 0.087 | 2.47 ± 0.053
NLGIPKIAYRGVKDCQE [SSN2] | 1.49 ± 0.2 | 1.58 ± 0.19 | 1.54 ± 0.26 | 1.13 ± 0.16
NLGRAVFWEIQSRVPTS [PRP8] | 2.05 ± 0.1 | 2.22 ± 0.17 | 2.17 ± 0.092 | 2.4 ± 0.18
NLHAEGWPKLQLGPQTP [ECM29] | 2.43 ± 0.18 | 2.74 ± 0.18 |  | 2.9 ± 0.24
NLLPKKSAKTAKASQEL [HTA2] | 2.92 ± 0.092 | 3.05 ± 0.12 | 2.87 ± 0.11 | 3.18 ± 0.048
NLLVLRGKNEIIQNAQR [RPO21] | 1.56 ± 0.11 | 1.41 ± 0.092 | 1.69 ± 0.16 | 1.26 ± 0.085
NLNTDKLKNNASRSQLE [YJL039C/NUP192] | 2.22 ± 0.13 | 2.69 ± 0.065 | 2.81 ± 0.11 | 2.69 ± 0.064
NLNVYIQVFEKPFLKKT [CDC53] | 2.2 ± 0.071 | 2.23 ± 0.056 | 2.57 ± 0.074 | 2.63 ± 0.057
NLPPHYALFLKALRRKI [SSN2] | 2.15 ± 0.11 | 1.79 ± 0.095 | 2.8 ± 0.22 | 1.7 ± 0.087
NLQQDKTNFQDVILDYQ [REC8] | 3.07 ± 0.069 | 3.19 ± 0.05 | 3.4 ± 0.071 | 3.12 ± 0.041
NLSSTPMETLLSGLSAD [YML031W/NDC1] | 2.42 ± 0.075 | 2.59 ± 0.071 | 2.53 ± 0.055 | 2.42 ± 0.038
NLTPANILNMSMNNDFQ [PGD1] | 2.86 ± 0.11 | 3.22 ± 0.091 | 3.01 ± 0.068 | 2.89 ± 0.052
NMEIRNLRLKILTIIEE [GRR1] | 1.62 ± 0.065 | 1.53 ± 0.049 | 1.83 ± 0.078 | 1.33 ± 0.046
NMNNGGKELDSLDLNNL [PGD1] | 3.06 ± 0.11 | 3.24 ± 0.11 | 3.06 ± 0.079 | 3.26 ± 0.065
NMTTIADRNDDDEGSFA [SRB6] | 3.72 ± 0.17 | 3.4 ± 0.3 | 3.33 ± 0.094 | 3.44 ± 0.079
NMVRNNNNNTIDESMPD [GRR1] | 2.83 ± 0.057 | 3.12 ± 0.061 | 3.02 ± 0.074 | 3.12 ± 0.052
NNETEQLKAEEKKILNQ [SMC1] | 3.11 ± 0.12 | 3.15 ± 0.17 | 3.13 ± 0.17 | 3.01 ± 0.11
NNGDKDHLKLVSLFSNL [YIL149C/MLP2] | 2.42 ± 0.09 | 2.67 ± 0.19 | 2.5 ± 0.26 | 2.44 ± 0.096
NNIEENLRLLNSIDSTS [ECM29] | 3.21 ± 0.06 | 3.33 ± 0.057 | 3.18 ± 0.044 | 3.21 ± 0.046
NNNGLPQNGNINNNINI [GAL11] | 3.13 ± 0.05 | 3.29 ± 0.071 | 3.39 ± 0.044 | 3.11 ± 0.048

Sequence | protein stability index (doa10∆) | protein stability index (pdr5∆) | protein stability index (san1∆) | protein stability index (ubr1∆)
NNNGNSAASKKKKNKNK [SRP21] | 3.09 ± 0.092 | 3 ± 0.12 | 3.15 ± 0.057 | 3.14 ± 0.057
NNNSSNEKEQLSFINPK [SEC65] | 2.83 ± 0.045 | 3.11 ± 0.052 | 2.8 ± 0.034 | 2.92 ± 0.036
NNPKIQTKDSVKEIVLP [IRR1] | 3.17 ± 0.07 | 2.94 ± 0.077 | 3 ± 0.059 | 3.11 ± 0.051
NNPKVKTSKRTKRWYKN [RPS11A] | 3.36 ± 0.091 | 3.28 ± 0.094 | 3.21 ± 0.12 | 3.19 ± 0.087
NNPQVVNAITVAQQQVQ [SNF5] | 1.69 ± 0.049 | 1.78 ± 0.047 | 1.42 ± 0.075 | 1.99 ± 0.035
NNQSKEKADYEDEMMHE [RPN12] | 2.63 ± 0.074 | 2.7 ± 0.06 | 2.67 ± 0.095 | 2.53 ± 0.052
NNTHVGRQFCNRLSRIH [YLR018C/POM34] | 2.34 ± 0.12 | 2.69 ± 0.17 | 2.3 ± 0.23 | 1.95 ± 0.089
NNTNTDNVSGLTRNAPL [SNF2] | 3.06 ± 0.069 | 3.35 ± 0.049 | 3.05 ± 0.039 | 3.16 ± 0.037
NPFTSATSSTNANAGLF [YOR098C/NUP1] | 2.72 ± 0.077 | 2.84 ± 0.1 | 2.82 ± 0.093 | 3.31 ± 0.074
NPYNIVPQGKIVALTNA [SMC3] | 2.77 ± 0.14 | 2.78 ± 0.086 | 2.82 ± 0.12 | 3.11 ± 0.078
NQIWNIALNLASKKFGK [SSN2] | 2.7 ± 0.13 | 2.88 ± 0.052 | 3.06 ± 0.067 | 3.08 ± 0.056
NQLTESASHFEQYTKKI [YJL041W/NSP1] | 2.28 ± 0.086 | 2.45 ± 0.065 | 2.76 ± 0.082 | 2.5 ± 0.095
NQNSSTGAGAFGTGQST [YJL041W/NSP1] | 2.33 ± 0.058 | 1.99 ± 0.062 | 2.31 ± 0.11 | 2.6 ± 0.048
NRDPVKHAEFDLSLLGY [SIR2] |  | 2.75 ± 0.21 |  | 
NRPNTLDPALLRPGRID [RPT1] | 2.72 ± 0.14 | 3.01 ± 0.14 | 3.16 ± 0.064 | 2.61 ± 0.13
NRQQKKRRFDPSSSDSN [RRP6] | 2.77 ± 0.056 | 2.69 ± 0.078 | 3.05 ± 0.053 | 3.19 ± 0.067
NRQTLMFTATMTPVIEK [PRP28] | 2.56 ± 0.061 | 2.62 ± 0.052 | 2.42 ± 0.052 | 2.44 ± 0.043
NRQVMHKMGVERSSKRL [SIR3] | 3.23 ± 0.17 | 3.49 ± 0.14 | 3.46 ± 0.14 | 3.34 ± 0.19
NRSEQNGQEQQGPVKNT [RGR1] | 3.26 ± 0.16 | 3.39 ± 0.14 | 3.11 ± 0.11 | 3.55 ± 0.22
NSCFSDGSQQNLQQDKT [REC8] | 2.77 ± 0.09 | 2.76 ± 0.13 | 2.18 ± 0.2 | 2.88 ± 0.059
